Measurements reported in patent US20180066029A1.

Columns and labels:
Assay in all cases: CIDOP with next-generation sequencing, recovery of peaks
[1] = molecular target: nucleosomes having only H3K9me3
[2] = molecular target: nucleosomes having both H3K9me3 and H3K36me3 (H3K36me2/3)
[3] = molecular target: nucleosomes having neither H3K9me3 nor H3K36me3
[4] = molecular target: nucleosomes having only H3K36me3

artificial protein PM (PWWP domain of Dnmt3a, naturally occurring linker of 21 amino acids, chromodomain of MPP8, N-terminal GST tag) (designed binder)
percent of genome regions of this state isolated by PM [1]: 6.2%
percent of genome regions of this state detected by PM [2]: 80.9%
percent of genome regions of this state isolated by PM [3]: 0.04%
percent of genome regions of this state isolated by PM [4]: 6.66%
